Reference: US10800847
Blank lines part the entries; values can stand above or below the substance they belong to.

What was measured:
[1] = target: HLA-B*2705 (B27) single antigen on Luminex beads (human); assay: Luminex single antigen, iBeads (#6), IVIg 1:4
[2] = target: HLA-B*2708 (B27) single antigen on Luminex beads (human); assay: Luminex single antigen, iBeads (#6), IVIg 1:4
[3] = target: HLA-B*3501 (B35) single antigen on Luminex beads (human); assay: Luminex single antigen, iBeads (#6), IVIg 1:4
[4] = target: HLA-B*3701 (B37) single antigen on Luminex beads (human); assay: Luminex single antigen, iBeads (#6), IVIg 1:4
[5] = target: HLA-B*3801 (B38) single antigen on Luminex beads (human); assay: Luminex single antigen, iBeads (#6), IVIg 1:4
[6] = target: HLA-B*3901 (B39) single antigen on Luminex beads (human); assay: Luminex single antigen, iBeads (#6), IVIg 1:4
[7] = target: HLA-B*4001 (B60) single antigen on Luminex beads (human); assay: Luminex single antigen, iBeads (#6), IVIg 1:4
[8] = target: HLA-B*4002 (B61) single antigen on Luminex beads (human); assay: Luminex single antigen, iBeads (#6), IVIg 1:4
[9] = target: HLA-B*4006 (B61) single antigen on Luminex beads (human); assay: Luminex single antigen, iBeads (#6), IVIg 1:4
[10] = target: HLA-B*4101 (B41) single antigen on Luminex beads (human); assay: Luminex single antigen, iBeads (#6), IVIg 1:4
[11] = target: HLA-B*4201 (B42) single antigen on Luminex beads (human); assay: Luminex single antigen, iBeads (#6), IVIg 1:4
[12] = target: HLA-B*4402 (B44) single antigen on Luminex beads (human); assay: Luminex single antigen, iBeads (#6), IVIg 1:4
[13] = target: HLA-B*4403 (B44) single antigen on Luminex beads (human); assay: Luminex single antigen, iBeads (#6), IVIg 1:4
[14] = target: HLA-B*4501 (B45) single antigen on Luminex beads (human); assay: Luminex single antigen, iBeads (#6), IVIg 1:4
[15] = target: HLA-B*4601 (B46) single antigen on Luminex beads (human); assay: Luminex single antigen, iBeads (#6), IVIg 1:4
[16] = target: HLA-B*4701 (B47) single antigen on Luminex beads (human); assay: Luminex single antigen, iBeads (#6), IVIg 1:4
[17] = target: Albumin on negative control beads (serum albumin, HSA/BSA) (human or bovine); assay: Luminex, iBead MFI against regular bead MFI, 1:4
[18] = target: HLA-B*2708 (B27) single antigen on Luminex beads (human); assay: Luminex single antigen, regular beads (#7), IVIg 1:4
[19] = target: HLA-B*3501 (B35) single antigen on Luminex beads (human); assay: as above
[20] = target: HLA-B*3701 (B37) single antigen on Luminex beads (human); assay: as above
[21] = target: HLA-B*3801 (B38) single antigen on Luminex beads (human); assay: as above
[22] = target: HLA-B*3901 (B39) single antigen on Luminex beads (human); assay: as above
[23] = target: HLA-B*4001 (B60) single antigen on Luminex beads (human); assay: as above
[24] = target: HLA-B*4006 (B61) single antigen on Luminex beads (human); assay: as above
[25] = target: HLA-B*4101 (B41) single antigen on Luminex beads (human); assay: as above
[26] = target: HLA-B*4201 (B42) single antigen on Luminex beads (human); assay: as above
[27] = target: HLA-B*4402 (B44) single antigen on Luminex beads (human); assay: as above
[28] = target: HLA-B*4403 (B44) single antigen on Luminex beads (human); assay: as above
[29] = target: HLA-B*4501 (B45) single antigen on Luminex beads (human); assay: as above
[30] = target: HLA-B*4601 (B46) single antigen on Luminex beads (human); assay: as above
[31] = target: HLA-B*4701 (B47) single antigen on Luminex beads (human); assay: as above
[32] = target: Albumin on negative control beads (serum albumin, HSA/BSA) (human or bovine); assay: Luminex single antigen beads, regular beads (#7), 1:4
[33] = target: HLA-A*0301 (A3) on single antigen beads (human) (UniProt P04439); assay: as above
[34] = target: HLA-B*2705 (B27) single antigen on Luminex beads (human); assay: Luminex single antigen, iBead vs regular bead, IVIg 1:4
[35] = target: HLA-B*2708 (B27) single antigen on Luminex beads (human); assay: as above
[36] = target: HLA-B*3501 (B35) single antigen on Luminex beads (human); assay: as above
[37] = target: HLA-B*3701 (B37) single antigen on Luminex beads (human); assay: as above
[38] = target: HLA-B*3801 (B38) single antigen on Luminex beads (human); assay: as above
[39] = target: HLA-B*3901 (B39) single antigen on Luminex beads (human); assay: as above
[40] = target: HLA-B*4001 (B60) single antigen on Luminex beads (human); assay: as above
[41] = target: HLA-B*4002 (B61) single antigen on Luminex beads (human); assay: as above
[42] = target: HLA-B*4006 (B61) single antigen on Luminex beads (human); assay: as above
[43] = target: HLA-B*4101 (B41) single antigen on Luminex beads (human); assay: as above
[44] = target: HLA-B*4402 (B44) single antigen on Luminex beads (human); assay: as above
[45] = target: HLA-B*4403 (B44) single antigen on Luminex beads (human); assay: as above
[46] = target: HLA-B*4601 (B46) single antigen on Luminex beads (human); assay: as above
[47] = target: HLA-B*4701 (B47) single antigen on Luminex beads (human); assay: as above
[48] = target: HLA-B*3501 (B35) (human); assay: Luminex single-antigen beads (iBeads), culture supernatant
[49] = target: HLA-B*3701 (B37) (human); assay: as above
[50] = target: HLA-B*3801 (B38) (human); assay: as above
[51] = target: HLA-B*3901 (B39) (human); assay: as above
[52] = target: HLA-B*4001 (B60) (human); assay: as above
[53] = target: HLA-B*4002 (B61) (human); assay: as above
[54] = target: HLA-B*4006 (B61) (human); assay: as above
[55] = target: HLA-B*4101 (B41) (human); assay: as above
[56] = target: HLA-B*4201 (B42) (human); assay: as above
[57] = target: HLA-B*4402 (B44) (human); assay: as above
[58] = target: HLA-B*4403 (B44) (human); assay: as above
[59] = target: HLA-B*4501 (B45) (human); assay: as above
[60] = target: HLA-B*4601 (B46) (human); assay: as above
[61] = target: HLA-B*4701 (B47) (human); assay: as above
[62] = target: HLA-B*4801 (B48) (human); assay: as above
[63] = target: HLA-B*4901 (B49) (human); assay: as above
[64] = target: HLA-B*5001 (B50) (human); assay: as above
[65] = target: HLA-B*5101 (B51) (human); assay: as above
[66] = target: HLA-A*0101 (A1) single antigen bead (human); assay: Luminex single antigen bead assay (IBEADS), culture supernatant
[67] = target: HLA-A*0201 (A2) single antigen bead (human); assay: as above
[68] = target: HLA-A*0203 (A2) single antigen bead (human); assay: as above
[69] = target: HLA-A*0206 (A2) single antigen bead (human); assay: as above
[70] = target: HLA-A*0301 (A3) single antigen bead (human); assay: as above
[71] = target: HLA-A*1101 (A11) single antigen bead (human); assay: as above
[72] = target: HLA-A*1102 (A11) single antigen bead (human); assay: as above
[73] = target: HLA-A*2301 (A23) single antigen bead (human); assay: as above
[74] = target: HLA-A*2402 (A24) single antigen bead (human); assay: as above
[75] = target: HLA-A*2403 (A24) single antigen bead (human); assay: as above
[76] = target: HLA-A*2501 (A25) single antigen bead (human); assay: as above
[77] = target: HLA-A*2601 (A26) single antigen bead (human); assay: as above
[78] = target: HLA-A*2901 (A29) single antigen bead (human); assay: as above
[79] = target: HLA-A*2902 (A29) single antigen bead (human); assay: as above
[80] = target: HLA-A*3001 (A30) single antigen bead (human); assay: as above
[81] = target: HLA-A*3002 (A30) single antigen bead (human); assay: as above
[82] = target: Negative control beads coated with serum albumin (HSA/BSA) (human or bovine); assay: as above

MFI [1]: 377 MFI | MFI [2]: 302 MFI | MFI [3]: 352 MFI | MFI [4]: 740 MFI | MFI [5]: 248 MFI | MFI [6]: 0 MFI | MFI [7]: 409 MFI | MFI [8]: 242 MFI | MFI [9]: 359 MFI | MFI [10]: 182 MFI | MFI [11]: 86 MFI | MFI [12]: 461 MFI | MFI [13]: 413 MFI | MFI [14]: 612 MFI | MFI [15]: 473 MFI | MFI [16]: 655 MFI | Difference % (iBead against regular bead) [17]: -44% | MFI [18]: 13 MFI | MFI [19]: 243 MFI | MFI [20]: 1100 MFI | MFI [21]: 254 MFI | MFI [22]: 0 MFI | MFI [23]: 237 MFI | MFI [24]: 765 MFI | MFI [25]: 32 MFI | MFI [26]: 0 MFI | MFI [27]: 683 MFI | MFI [28]: 284 MFI | MFI [29]: 272 MFI | MFI [30]: 537 MFI | MFI [31]: 355 MFI | MFI [32]: 1200 MFI | MFI [33]: 2 MFI | Difference % (iBead against regular bead MFI) [34]: 167% | Difference % (iBead against regular bead MFI) [35]: 2220% | Difference % (iBead against regular bead MFI) [36]: 45% | Difference % (iBead against regular bead MFI) [37]: -33% | Difference % (iBead against regular bead MFI) [38]: -2% | Difference % (iBead against regular bead MFI) [39]: 0% | Difference % (iBead against regular bead MFI) [40]: 73% | Difference % (iBead against regular bead MFI) [41]: 81% | Difference % (iBead against regular bead MFI) [42]: -53% | Difference % (iBead against regular bead MFI) [43]: 469% | Difference % (iBead against regular bead MFI) [44]: -33% | Difference % (iBead against regular bead MFI) [45]: 45% | Difference % (iBead against regular bead MFI) [46]: -12% | Difference % (iBead against regular bead MFI) [47]: 85%
Substance: Sandoglobulin (IVIg, Novartis, Basel, Switzerland) (antibody)

MFI [48]: 60 MFI | MFI [49]: 43 MFI | MFI [50]: 24 MFI | MFI [51]: 21 MFI | MFI [52]: 28 MFI | MFI [53]: 33 MFI | MFI [54]: 41 MFI | MFI [55]: 89 MFI | MFI [56]: 32 MFI | MFI [57]: 32 MFI | MFI [58]: 18 MFI | MFI [59]: 18 MFI | MFI [60]: 23 MFI | MFI [61]: 38 MFI | MFI [62]: 21 MFI | MFI [63]: 71 MFI | MFI [64]: 67 MFI | MFI [65]: 45 MFI | MFI [66]: 28 MFI | MFI [67]: 31 MFI | MFI [68]: 31 MFI | MFI [69]: 27 MFI | MFI [70]: 36 MFI | MFI [71]: 51 MFI | MFI [72]: 60 MFI | MFI [73]: 36 MFI | MFI [74]: 42 MFI | MFI [75]: 53 MFI | MFI [76]: 24 MFI | MFI [77]: 57 MFI | MFI [78]: 115 MFI | MFI [79]: 23 MFI | MFI [80]: 45 MFI | MFI [81]: 69 MFI | MFI [82]: 6 MFI
Substance: TFL Anti-HLA-E Mab PTG-006 (antibody)
